Test [1] addresses recombinant soluble CD4 engineered with a deletion in the transmembrane region but retaining the cytoplasmic tail (UniProt P01730). As to the kind of experiment: ELISA; as a1, but HIVBaL treated beforehand with acidified media at pH 3.8 (HCl adjusted) for 60 min at 37°C. A general note: An ELISA detects its analyte on a solid surface through an enzyme-linked reagent.
Test [2] shares this target. As to the kind of experiment: ELISA; as a1, but HIVBaL treated beforehand with 1% (w/w) (110 mM) L-lactic acid at pH 3.8 for 60 min at 37°C.

As for “virion-associated trimeric gp120 envelope glycoprotein of HIV-1 BaL (on HIVBaL virions) (natural protein)”, the fold reduction in rCD4 binding relative to untreated HIV-1 in test [1] and in test [2] was 2 fold throughout.

For the origin of these results see PMC12527216.
